The values that follow come from PMC3758794 (Cell biochemistry and biophysics, 2013).

For one data set, the target named is UBE2W-WT (human) (UniProt Q96B02). As to the kind of experiment: SEC. Background: In gel filtration, larger molecules generally elute earlier.
The data set “SEC” concerns the molecule itself. As to the kind of experiment: SEC.

Regarding “UBE2W-WT (from UniProt Q96B02 1-151) (enzyme)”, the stoichiometry N with UBE2W-WT (human) is 2.

B1: UBE2W-131Δ (truncation following Y131) (domain or fragment, human, UniProt Q96B02 1-131, looked up)
chain: MASMQKRLQKELLALQNDPPPGMTLNEKSVQNSITQWIVDMEGAPGTLYEGEKFQLLFKFSSRYPFDSPQVMFTGENIPVHPHVYSNGHICLSILTEDWSPALSVQSVCLSIISMLSSCKEKRRPPDNSFY
As to B1, the “stoichiometry N” value in the data set “SEC” was 2.

The stoichiometry N is the number of molecules, sites or subunits per partner or assembly.
